Results: patent US20180355043A1 (Janssen / Centocor, published 2018)

T1: DR4G113: Human HRA-DPA1*03/DPB1*04:01 ECD with NY-ESO peptide NY-ESO_157-169 (human)
T1 construct: also called HLA-DP; DP4:01
T1 MHC II alpha: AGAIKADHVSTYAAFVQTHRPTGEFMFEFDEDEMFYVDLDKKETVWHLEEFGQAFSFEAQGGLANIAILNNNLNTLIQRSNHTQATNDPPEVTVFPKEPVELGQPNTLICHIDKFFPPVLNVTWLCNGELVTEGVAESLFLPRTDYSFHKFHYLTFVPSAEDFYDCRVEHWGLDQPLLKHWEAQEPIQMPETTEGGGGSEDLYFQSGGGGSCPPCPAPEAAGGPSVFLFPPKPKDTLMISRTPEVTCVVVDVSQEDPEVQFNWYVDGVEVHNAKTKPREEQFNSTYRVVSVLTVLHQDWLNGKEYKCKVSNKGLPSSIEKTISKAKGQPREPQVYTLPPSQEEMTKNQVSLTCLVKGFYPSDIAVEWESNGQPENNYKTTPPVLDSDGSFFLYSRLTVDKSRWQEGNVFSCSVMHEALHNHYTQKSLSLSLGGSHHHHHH
T1 MHC II beta: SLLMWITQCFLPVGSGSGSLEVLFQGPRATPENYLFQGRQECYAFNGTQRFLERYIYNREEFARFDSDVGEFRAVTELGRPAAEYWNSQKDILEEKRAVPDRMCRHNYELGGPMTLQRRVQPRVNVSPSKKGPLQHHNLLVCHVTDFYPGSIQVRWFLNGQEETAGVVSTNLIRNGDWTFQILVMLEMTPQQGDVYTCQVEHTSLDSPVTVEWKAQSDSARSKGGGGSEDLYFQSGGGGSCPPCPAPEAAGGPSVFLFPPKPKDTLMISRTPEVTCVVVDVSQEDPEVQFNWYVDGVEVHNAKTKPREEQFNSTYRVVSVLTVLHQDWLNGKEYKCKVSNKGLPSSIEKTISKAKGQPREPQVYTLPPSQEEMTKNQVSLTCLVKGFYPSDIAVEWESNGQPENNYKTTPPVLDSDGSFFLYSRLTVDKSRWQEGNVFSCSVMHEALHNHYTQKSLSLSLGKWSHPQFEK

B1: DR4B6 (antibody, V domains shown)
VH: QIQLVQSGPELKKPGETVKISCKASGFTFTNYGMNWVKQAPGKGLKWMGWINTYTREPTYADDFKGRFAFSLETSASTAYLQINNLKNEDTAKYFCARDITAVVPTGFDYWGQGTTLTVSS
VL: DIQMTQSPASLSVSVGETVTITCRASENIYSNLAWYRQKQGKSPQLLVFAASNLADGVPSRFSGSGSGTQYSLKINSLQSEDFGDYYCQHFWTTPWAFGGGTNLEIK
notes: also called L243 re-engineered as IgG2sigma
B2: DR4B5 (antibody, V domains shown)
VH: QVQLQESGPGLVKPSETLSLTCTVSGFSLTNYGVHWVRQSPGKGLEWIGVKWSGGSTEYNAAFISRLTISKDTSKNQVSLKLNSLTAADTAVYYCARNDRYAMDYWGQGTLVTVSS
VL: DIQMTQSPSSLSASVGDRVTITCRASENIYSYLAWYQQKPGKAPKLLVSNAKTLAEGVPSRFSGSGSGKQFTLTISSLQPEDFATYYCQHHYGNSYPFGQGTKLEIK
notes: also called apolizumab (1D10) re-engineered as IgG2sigma

Key:
[1] = biological target: T2, DR4G111: Human HLA-DQA1*01:02/DQB1*06:02 ECD with insulin peptide INS_1-15 (human); test: MSD ECL; antigen coated; mAb 5 µg/ml
T2 construct: also called DQB6:02
Procedure: (§1) Select generated antibodies were characterized for their binding to soluble HLA-DR, HLA-DQ or HLA-DP antigens with various peptides attached to the N-terminus of the beta chains. […] The soluble antigens of DR, DP and DQ were coated on MSD standard plates (Meso Scale Discovery, Cat. No. L15XA-3) at 5 μg/ml at 4° C. overnight. […] Binding to DR antigens was tested with four antibody concentrations ranging from 0.04-5 μg/ml. Binding to DP and DQ antigens was tested with one concentration at 5 μg/ml. After three washes, SulfoTag anti-human/NHP Kappa secondary antibody (Meso Scale Discovery, Cat. No. D20TF-6) was added and incubated for 1 hour. After another three washes, the plates were read under MSD reader (Meso Scale Discovery), and electrochemiluminescence (ECL) was measured.

[2] = biological target: T1, DR4G113: Human HRA-DPA1*03/DPB1*04:01 …; test: MSD ECL; antigen coated; mAb 5 µg/ml
Procedure: as §1

[3] = biological target: DR4G90: Human HLA-DRA1*01:02/DRB1*04:01 ECD with collagen II peptide CII_1236-1249 (human); test: MSD ECL; antigen coated; mAb 0.2 µg/ml
[4] = biological target: T3, DR4G99: Human HLA-DRA1*01:02/DRB1*01:01 ECD with collagen peptide CII_1236-1249 (human); test: MSD ECL; antigen coated; mAb 0.2 µg/ml
T3 construct: also called DRG99

[5] = biological target: T4, DR4G110: Human HLA-DRA1*01:02/DRB1*04:01 ECD with aggrecan peptide N1 (human); test: MSD ECL; antigen coated; protocol of Example 3
T4 construct: also called DRB1*04:01 Aggrecan

[6] = biological target: DR4G102: Human HLA-DRA1*01:02/DRB1*01:01 ECD with collagen II peptide CII_257-273 (human); test: MSD ECL; antigen coated; protocol of Example 3
[7] = biological target: DR4G101: Human HLA-DRA1*01:02/DRB1*04:02 ECD with collagen II peptide CII_257-273 (human); test: MSD ECL; antigen coated; protocol of Example 3
[8] = biological target: DR4G98: Human HLA-DRA1*01:02/DRB1*04:02 ECD with collagen II peptide CII_1236-1249 (human); test: MSD ECL; antigen coated; protocol of Example 3
[9] = biological target: T5, DR4G96: Human HLA-DRA1*01:02/DRB1*01:01 ECD with CLIP peptide (human); test: MSD ECL; antigen coated; protocol of Example 3
T5 construct: also called DRB1*01:01 CLIP

[10] = biological target: T3, DR4G99: Human HLA-DRA1*01:02/DRB1*01:01 …; test: MSD ECL; antigen coated; protocol of Example 3
[11] = biological target: T6, DR4G142: Human HLA-DRA1*01:02/DRB1*03:01 ECD_VimentineL70A (human); test: MSD ECL; antigen coated; protocol of Example 3;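 note: antibodies tested at 0.04–5 µg/ml on plate-coated soluble HLA-DR carrying peptide on the beta chain N-terminus, bound antibody detected by SulfoTag anti-human kappa secondary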
T6 construct: also called DRB1*03:01 VitL70A

[12] = biological target: T7, DR4G117: Human HLA-DRA1*01:02/DRB1*03:01 ECD with Collagen II peptide CII_1236-1249 (human); test: MSD ECL; antigen coated; protocol of Example 3;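 note: antibodies tested at 0.04–5 µg/ml on plate-coated soluble HLA-DR carrying peptide on the beta chain N-terminus, bound antibody detected by SulfoTag anti-human kappa secondary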
T7 construct: also called DRB1*03:01 CII_1236

[13] = biological target: T8, DR4G97: Human HLA-DRA1*01:02/DRB1*15:01 ECD with collagen II peptide CII_1236-1249 (human); test: MSD ECL; antigen coated; protocol of Example 3;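 note: antibodies tested at 0.04–5 µg/ml on plate-coated soluble HLA-DR carrying peptide on the beta chain N-terminus, bound antibody detected by SulfoTag anti-human kappa secondary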
T8 construct: also called DRB1*15:01 CII_1236

[14] = biological target: T9, DR4G112: Human HLA-DQA1*01:02/DQB1*06:02 ECD with PLP peptide PLP_178-186 (human); test: MSD ECL; antigen coated; protocol of Example 3;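 note: antibody binding to plate-coated soluble HLA class II antigens carrying peptides fused at the beta-chain N-terminus, detected with a SulfoTag anti-human Kappa secondary antibody for 1 hour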
T9 construct: also called DQB6:02 PLP

[15] = biological target: T10, DR4G107 (HLA DPB4:01, peptide CLIP) (human); test: MSD ECL; antigen coated; protocol of Example 3;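 note: antibody binding to plate-coated soluble HLA class II antigens carrying peptides fused at the beta-chain N-terminus, detected with a SulfoTag anti-human Kappa secondary antibody for 1 hour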
T10 construct: extracellular domain

[16] = biological target: T11, DR4G115 (HLA DPB4:01, peptide LCAP) (human); test: MSD ECL; antigen coated; protocol of Example 3;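 note: antibody binding to plate-coated soluble HLA class II antigens carrying peptides fused at the beta-chain N-terminus, detected with a SulfoTag anti-human Kappa secondary antibody for 1 hour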
T11 construct: extracellular domain

[17] = biological target: T12, DR4G108 (HLA DQB6:02, peptide CLIP) (human); test: MSD ECL; antigen coated; protocol of Example 3;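 note: antibody binding to plate-coated soluble HLA class II antigens carrying peptides fused at the beta-chain N-terminus, detected with a SulfoTag anti-human Kappa secondary antibody for 1 hour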
T12 construct: extracellular domain

[18] = biological target: T13, DR4G145 (HLA DQB2:01, peptide CLIP) (human); test: MSD ECL; antigen coated; protocol of Example 3
T13 construct: extracellular domain

[19] = biological target: T14, DR4G146 (HLA DQB2:01, peptide CLIP) (human); test: MSD ECL; antigen coated; protocol of Example 3
T14 construct: extracellular domain

Binder | ECL signal [1] [ECL] | ECL signal [2] [ECL] | ECL signal [3] [ECL] | ECL signal [4] [ECL] | ECL signal [5] [ECL] | ECL signal [6] [ECL] | ECL signal [7] [ECL] | ECL signal [8] [ECL] | ECL signal [9] [ECL] | ECL signal [10] [ECL] | ECL signal [11] [ECL] | ECL signal [12] [ECL] | ECL signal [13] [ECL] | ECL signal [14] [ECL] | ECL signal [15] [ECL] | ECL signal [16] [ECL] | ECL signal [17] [ECL] | ECL signal [18] [ECL] | ECL signal [19] [ECL]
B1 | 282 | 298 | 1.35e+06 | 1.24e+06 | 372000 | 693000 | 615000 | 623000 | 627000 | 672000 | 399000 | 620000 | 222000 | 203 | 133 | 67 | 76 | 473 | 1450
B2 | 195 | 120 | 1.31e+06 | 1.18e+06 | 8040 | 62500 | 723 | 469 | 20600 | 45900 | 1330 | 730 | 256 | 123 | 100 | 70 | 76 | 1360 | 736
